In patent US20160002357A1 (Pfizer, published 2016):
“And” between values parts separate entries of the source, which are not always exact repeats. Equal values may be shown once. Read-outs that look alike come from different tables or passages of the source.

Legend:
[1] = biological target: T1, human P-cadherin expressed on the cell surface (human, UniProt P22223 108-829); assay: cell-based or functional assay
[2] = biological target: T2, cynomolgus monkey P-cadherin ECD (cynomolgus monkey); assay: SPR Biacore pH 7.4, average
T2 construct: extracellular domain; also called cyno P-cadherin ECD; Cyno P-cadherin

[3] = biological target: T2, cynomolgus monkey P-cadherin ECD; assay: SPR Biacore pH 7.4
[4] = biological target: T2, cynomolgus monkey P-cadherin ECD; assay: SPR Biacore affinity
huP-cad-ECD = biological target: T3, huP-cad-ECD (human, UniProt P22223 108-654); assay: ELISA, recombinant protein
T3 construct: extracellular domain; also called recombinant human P-cadherin; human P-cadherin-ECD
T3 sequence (P22223 108-654): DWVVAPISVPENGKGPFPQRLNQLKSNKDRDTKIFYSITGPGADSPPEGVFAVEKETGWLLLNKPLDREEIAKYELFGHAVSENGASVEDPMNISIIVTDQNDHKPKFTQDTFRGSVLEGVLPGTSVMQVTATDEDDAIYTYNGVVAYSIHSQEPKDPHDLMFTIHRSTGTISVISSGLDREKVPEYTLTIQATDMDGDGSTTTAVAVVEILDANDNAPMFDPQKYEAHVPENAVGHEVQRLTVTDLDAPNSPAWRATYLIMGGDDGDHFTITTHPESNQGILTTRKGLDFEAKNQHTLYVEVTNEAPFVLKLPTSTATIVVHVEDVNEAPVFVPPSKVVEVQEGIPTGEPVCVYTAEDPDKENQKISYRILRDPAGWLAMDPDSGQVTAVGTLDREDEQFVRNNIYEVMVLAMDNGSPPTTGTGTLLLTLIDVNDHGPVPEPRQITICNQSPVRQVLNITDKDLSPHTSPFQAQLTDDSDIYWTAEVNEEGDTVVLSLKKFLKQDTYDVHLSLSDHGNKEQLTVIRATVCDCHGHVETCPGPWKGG

muP-cad-ECD [5] = biological target: T4, muP-cad-ECD (murine, UniProt P10287 100-647); assay: ELISA, recombinant protein
T4 construct: extracellular domain; also called murine P-cadherin; murine P-cadherin ECD
T4 sequence (looked up): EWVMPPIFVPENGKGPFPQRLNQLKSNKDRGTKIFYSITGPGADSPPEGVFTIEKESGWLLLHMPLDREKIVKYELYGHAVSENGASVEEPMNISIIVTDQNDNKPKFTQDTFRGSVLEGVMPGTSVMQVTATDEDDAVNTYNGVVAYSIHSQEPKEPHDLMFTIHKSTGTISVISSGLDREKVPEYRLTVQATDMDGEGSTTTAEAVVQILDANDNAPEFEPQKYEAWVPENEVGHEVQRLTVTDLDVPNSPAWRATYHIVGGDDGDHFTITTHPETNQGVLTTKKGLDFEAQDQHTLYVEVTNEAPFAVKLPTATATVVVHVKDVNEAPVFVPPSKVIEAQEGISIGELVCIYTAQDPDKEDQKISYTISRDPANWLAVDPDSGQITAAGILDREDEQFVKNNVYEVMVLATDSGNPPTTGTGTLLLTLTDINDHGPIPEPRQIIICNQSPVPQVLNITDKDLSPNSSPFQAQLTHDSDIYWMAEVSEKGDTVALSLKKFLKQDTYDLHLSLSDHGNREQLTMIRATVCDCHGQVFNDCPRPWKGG

huP-cad-ECD biotinylated = biological target: T5, huP-cad-ECD biotinylated (human, UniProt P22223 108-654, biotinylated (sites not given)); assay: ELISA, recombinant protein
T5 construct: extracellular domain
T5 sequence (P22223 108-654): as the sequence (P22223 108-654) above

[6] = biological target: T1, human P-cadherin expressed on the cell …; assay: cell ELISA, CHO-huPcad cells
[7] = biological target: T1, human P-cadherin expressed on the cell …; assay: cell ELISA, H1650 cells
[8] = biological target: T1, human P-cadherin expressed on the cell …; assay: cell ELISA, SW480-huPcad cells
[9] = biological target: T1, human P-cadherin expressed on the cell …; assay: cell-based or functional assay; remark: listed apart in the source
[10] = biological target: T2, cynomolgus monkey P-cadherin ECD; assay: SPR Biacore, average
[11] = biological target: T2, cynomolgus monkey P-cadherin ECD; assay: SPR Biacore affinity; remark: listed apart in the source
muP-cad-ECD [12] = biological target: T4, muP-cad-ECD; assay: SPR Biacore
P-cadherin ECD1-2-Fc = biological target: T6, P-cadherin ECD1-2-Fc (human, UniProt P22223 108-328); assay: protein ELISA
T6 construct: Signal peptide and pro-peptide of the construct left out (see ECD1-Fc); not shown: cleavable linker; hinge and CH2 and CH3 domains of human IgG1
T6 sequence (P22223 108-328): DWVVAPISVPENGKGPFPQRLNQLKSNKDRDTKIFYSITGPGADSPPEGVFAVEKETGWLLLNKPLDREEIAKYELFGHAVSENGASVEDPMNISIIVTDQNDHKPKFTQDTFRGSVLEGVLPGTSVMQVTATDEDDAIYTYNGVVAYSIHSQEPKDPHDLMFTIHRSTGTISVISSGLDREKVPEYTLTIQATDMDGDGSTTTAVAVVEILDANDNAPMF

P-cadherin ECD1-Fc = biological target: T7, P-cadherin ECD1-Fc (human, UniProt P22223 108-215); assay: protein ELISA
T7 construct: PACE was co-transfected for processing of the propeptide, so both are left out here; not shown: cleavable linker; hinge and CH2 and CH3 domains of human IgG1
T7 sequence (P22223 108-215): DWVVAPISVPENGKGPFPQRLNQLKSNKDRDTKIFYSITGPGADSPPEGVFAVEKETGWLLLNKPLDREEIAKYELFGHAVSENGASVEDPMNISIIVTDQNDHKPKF

[13] = biological target: T1, human P-cadherin expressed on the cell …; assay: cell-based or functional assay; remark: listed apart in the source
[14] = biological target: T2, cynomolgus monkey P-cadherin ECD; assay: SPR Biacore

T1 sequence (P22223 108-829): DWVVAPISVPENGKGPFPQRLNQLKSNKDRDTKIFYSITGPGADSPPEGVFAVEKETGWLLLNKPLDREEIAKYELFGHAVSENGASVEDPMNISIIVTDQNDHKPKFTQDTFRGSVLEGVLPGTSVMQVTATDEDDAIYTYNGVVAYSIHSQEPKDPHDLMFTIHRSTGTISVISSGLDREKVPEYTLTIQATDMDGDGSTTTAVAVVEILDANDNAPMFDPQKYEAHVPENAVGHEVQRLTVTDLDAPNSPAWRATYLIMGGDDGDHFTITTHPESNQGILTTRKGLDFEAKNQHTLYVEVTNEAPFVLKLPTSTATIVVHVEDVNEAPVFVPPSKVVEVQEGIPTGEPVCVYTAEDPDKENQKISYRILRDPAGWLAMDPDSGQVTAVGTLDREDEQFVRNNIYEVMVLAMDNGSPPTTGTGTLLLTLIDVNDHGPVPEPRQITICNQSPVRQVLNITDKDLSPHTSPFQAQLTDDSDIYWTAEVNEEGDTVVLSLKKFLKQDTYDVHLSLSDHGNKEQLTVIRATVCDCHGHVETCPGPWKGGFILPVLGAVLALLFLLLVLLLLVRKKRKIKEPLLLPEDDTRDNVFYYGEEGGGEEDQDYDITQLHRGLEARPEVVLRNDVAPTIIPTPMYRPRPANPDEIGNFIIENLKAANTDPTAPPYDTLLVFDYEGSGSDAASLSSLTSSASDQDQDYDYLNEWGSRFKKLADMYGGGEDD

B1: 153 VF-DART (bispecific antibody)
chain 1: QSVLTQPPSVSAAPGQKVTISCSGSSSNIGNNYVSWYQQLPGTAPKLLIYDNNKRPSGIPDRFSGSKSGTSATLGITGLQTGDEADYYCGTWDSSLSGVVFGGGTKLTVLGGGSGGGGEVQLVESGGGLVQPGGSLRLSCAASGFTFSTYAMNWVRQAPGKGLEWVGRIRSKYNNYATYYADSVKGRFTISRDDSKNSLYLQMNSLKTEDTAVYYCVRHGNFGNSYVSWFAYWGQGTLVTVSS
chain 2: QAVVTQEPSLTVSPGGTVTLTCRSSTGAVTTSNYANWVQQKPGQAPRGLIGGTNKRAPWTPARFSGSLLGGKAALTITGAQAEDEADYYCALWYSNLWVFGGGTKLTVLGGGGSGGGGEVQLVQSGAEVKKPGASVKVSCKASGYTFTSYGISWVRQAPGQGLEWMGWISAYNGNTNYAQKLQGRVTMTTDTSTSTAYMELRSLRSDDTAVYYCATIDTANAFGIWGQGTMVTVSS
modifications: One interchain disulfide between the Linker 2 cysteines; these linkers are left out of the letters.
notes: not shown: The C-terminal cysteine Linker 2 on each chain
- DU145 CTL (LDH) EC50 [1]: 0.0004 nM
- HCT116 CTL (Luc) EC50 [1]: 0.0005 nM
- Kd [2]: 0.318 nM
- Kd [3]: 0.332 nM and 0.304 nM
- koff [3]: 0.00024 s⁻¹ and 0.000229 s⁻¹
- kon [3]: 722000 M⁻¹ s⁻¹ and 752000 M⁻¹ s⁻¹
- t½ [3]: 45.4 min and 47.6 min
- Kd [4]: 0.31 nM

B2: 154 VF-DART (bispecific antibody, not shown: small tags and cut ends)
chain 1: QSVLTQPPSVSAAPGQKVTISCSGSSSNIGNNYVSWYQQLPGTAPKLLIYDNNKRPSGIPDRFSGSKSGTSATLGITGLQTGDEADYYCGTWDSSLSSYVFGTGTKVTVLGGGSGGGGEVQLVESGGGLVQPGGSLRLSCAASGFTFSTYAMNWVRQAPGKGLEWVGRIRSKYNNYATYYADSVKGRFTISRDDSKNSLYLQMNSLKTEDTAVYYCVRHGNFGNSYVSWFAYWGQGTLVTVSS
chain 2: QAVVTQEPSLTVSPGGTVTLTCRSSTGAVTTSNYANWVQQKPGQAPRGLIGGTNKRAPWTPARFSGSLLGGKAALTITGAQAEDEADYYCALWYSNLWVFGGGTKLTVLGGGGSGGGGEVQLVQSGAEVKKPGASVKVSCKASGYTFTSYGISWVRQAPGQGLEWMGWISAYNGNTNYAQKLQGRVTMTTDTSTSTAYMELRSLRSDDTAVYYCATIDTATAFDIWGQGTMVTVSS
- DU145 CTL (LDH) EC50 [1]: 0.0024 nM
- HCT116 CTL (Luc) EC50 [1]: 0.008 nM
- Kd [4]: 2.85 nM

B3: 35 scFv-Fc (Fc fusion)
VH: EVQLVQSGAEVKKPGASVKVSCKASGYTFTSYGISWVRQAPGQGLEWMGWISAYNGNTNYAQKLQGRVTMTTDTSTSTAYMELRSLRSDDTAVYYCATIDTASAFDIWGQGTMVTVSS
VL: QSVLTQPPSVSAAPGQKVTISCSGSSSNIGNNYVSWYQQLPGTAPKLLIYDNNKRPSGIPDRFSGSKSGTSATLGITGLQTGDEADYYCGTWDSSLSAVVFGGGTKLTVL
notes: also called P-CAD 35; P-cadherin clone 35 scFv-Fc
- EC50 (huP-cad-ECD): 2.5 nM
- binding result (muP-cad-ECD [5]): no binding
- EC50 (huP-cad-ECD biotinylated): 0.0176 nM
- EC50 [6]: 0.276 nM
- EC50 [7]: 0.163 nM
- EC50 [8]: 0.173 nM

B4: 33 scFv-Fc (Fc fusion)
VH: QMQLVQSGAEVKKPGASVKVSCKASGYTFTSYGISWVRQAPGQGLEWMGWISAYNGNTNYAQKLQGRVTMTTDTSTSTAYMELRSLRSDDTAVYYCALIGSGVAFDIWGQGTMVTVSS
VL: QSVLTQPPSVSAAPGQKVTISCSGSSSNIGNNYVSWYQQLPGTAPKLLIYDNNKRPSGIPDRFSGSKSGTSATLGITGLQTGDEADYYCGTWDSSLSAYVFGTGTKVTVL
notes: also called P-CAD 33; P-cadherin clone 33 scFv-Fc
- EC50 (huP-cad-ECD): 3.46 nM
- binding result (muP-cad-ECD [5]): no binding
- EC50 (huP-cad-ECD biotinylated): 0.101 nM
- EC50 [6]: 0.493 nM
- EC50 [7]: 0.567 nM
- EC50 [8]: 0.424 nM

B5: 34 scFv-Fc (Fc fusion)
VH: EVQLVQSGAEVKKPGASVKVSCKASGYTFTSYGISWVRQAPGQGLEWMGWISAYNGNTNYAQKLQGRVTMTTDTSTSTAYMELRSLRSDDTAVYYCATIDTASAFDIWGQGTMVTVSS
VL: QSVVTQPPSVSAAPGQKVTISCSGSSSNIGNNYVSWYQQLPGTAPKLLIYDNNKRPSGIPDRFSGSKSGTSATLGITGLQTGDEADYYCGTWDSSLSAWVFGGGTKLTVL
notes: also called P-CAD 34; P-cadherin clone 34 scFv-Fc
- EC50 (huP-cad-ECD): 11.2 nM
- binding result (muP-cad-ECD [5]): no binding
- EC50 (huP-cad-ECD biotinylated): 0.194 nM
- EC50 [6]: 0.394 nM
- EC50 [7]: 0.494 nM
- EC50 [8]: 0.442 nM

B6: 153 LP-DART (bispecific antibody)
chain 1: QSVLTQPPSVSAAPGQKVTISCSGSSSNIGNNYVSWYQQLPGTAPKLLIYDNNKRPSGIPDRFSGSKSGTSATLGITGLQTGDEADYYCGTWDSSLSGVVFGGGTKLTVLGGGSGGGGEVQLVESGGGLVQPGGSLRLSCAASGFTFSTYAMNWVRQAPGKGLEWVGRIRSKYNNYATYYADSVKGRFTISRDDSKNSLYLQMNSLKTEDTAVYYCVRHGNFGNSYVSWFAYWGQGTLVTVSSGCPPCPAPEAAGAPSVFLFPPKPKDTLMISRTPEVTCVVVDVSHEDPEVKFNWYVDGVEVHNAKTKPREEQYNSTYRVVSVLTVLHQDWLNGKEYKCKVSNKALPAPIEKTISKAKGQPREPQVCTLPPSREEMTKNQVSLWCLVKGFYPSDIAVEWESNGQPENNYKTTPPVLDSDGSFFLYSKLTVDKSRWQQGNVFSCSVMHEALHNHYTQKSLSLSPG
chain 2: QAVVTQEPSLTVSPGGTVTLTCRSSTGAVTTSNYANWVQQKPGQAPRGLIGGTNKRAPWTPARFSGSLLGGKAALTITGAQAEDEADYYCALWYSNLWVFGGGTKLTVLGGGGSGGGGEVQLVQSGAEVKKPGASVKVSCKASGYTFTSYGISWVRQAPGQGLEWMGWISAYNGNTNYAQKLQGRVTMTTDTSTSTAYMELRSLRSDDTAVYYCATIDTANAFGIWGQGTMVTVSSGCPPCPAPEAAGAPSVFLFPPKPKDTLMISRTPEVTCVVVDVSHEDPEVKFNWYVDGVEVHNAKTKPREEQYNSTYRVVSVLTVLHQDWLNGKEYKCKVSNKALPAPIEKTISKAKGQPREPQVYTLPPCREEMTKNQVSLSCAVKGFYPSDIAVEWESNGQPENNYKTTPPVLDSDGSFFLVSKLTVDKSRWQQGNVFSCSVMHEALHNHYTQKSLSLSPG
- CTL assay on CHO P-cadherin cells, cell viability after 48 hours, EC50 [9]: 0.00041 nM
- Kd [10]: 0.521 nM
- Kd [2]: 0.521 nM
- Kd [11]: 0.521 nM
- binding result (muP-cad-ECD [12]): no binding
- binding result (P-cadherin ECD1-2-Fc): no binding
- binding result (P-cadherin ECD1-Fc): no binding
- Kd [3]: 0.683 nM and 0.359 nM
- koff [3]: 0.0002 s⁻¹ and 0.000209 s⁻¹
- kon [3]: 293000 M⁻¹ s⁻¹ and 581000 M⁻¹ s⁻¹
- t½ [3]: 54.4 min and 52.2 min
- DU145 CTL (LDH) EC50 [13]: 0.0006 nM
- HCT116 CTL (Luc) EC50 [13]: 0.0004 nM
- Kd [14]: 0.683 nM and 0.359 nM
- koff [14]: 0.0002 s⁻¹ and 0.000209 s⁻¹
- kon [14]: 293000 M⁻¹ s⁻¹ and 581000 M⁻¹ s⁻¹
- t½ [14]: 54.4 min and 52.2 min

B7: 154 LP-DART (bispecific antibody)
chain 1: QSVLTQPPSVSAAPGQKVTISCSGSSSNIGNNYVSWYQQLPGTAPKLLIYDNNKRPSGIPDRFSGSKSGTSATLGITGLQTGDEADYYCGTWDSSLSSYVFGTGTKVTVLGGGSGGGGEVQLVESGGGLVQPGGSLRLSCAASGFTFSTYAMNWVRQAPGKGLEWVGRIRSKYNNYATYYADSVKGRFTISRDDSKNSLYLQMNSLKTEDTAVYYCVRHGNFGNSYVSWFAYWGQGTLVTVSSGCPPCPAPEAAGAPSVFLFPPKPKDTLMISRTPEVTCVVVDVSHEDPEVKFNWYVDGVEVHNAKTKPREEQYNSTYRVVSVLTVLHQDWLNGKEYKCKVSNKALPAPIEKTISKAKGQPREPQVCTLPPSREEMTKNQVSLWCLVKGFYPSDIAVEWESNGQPENNYKTTPPVLDSDGSFFLYSKLTVDKSRWQQGNVFSCSVMHEALHNHYTQKSLSLSPG
chain 2: QAVVTQEPSLTVSPGGTVTLTCRSSTGAVTTSNYANWVQQKPGQAPRGLIGGTNKRAPWTPARFSGSLLGGKAALTITGAQAEDEADYYCALWYSNLWVFGGGTKLTVLGGGGSGGGGEVQLVQSGAEVKKPGASVKVSCKASGYTFTSYGISWVRQAPGQGLEWMGWISAYNGNTNYAQKLQGRVTMTTDTSTSTAYMELRSLRSDDTAVYYCATIDTATAFDIWGQGTMVTVSSGCPPCPAPEAAGAPSVFLFPPKPKDTLMISRTPEVTCVVVDVSHEDPEVKFNWYVDGVEVHNAKTKPREEQYNSTYRVVSVLTVLHQDWLNGKEYKCKVSNKALPAPIEKTISKAKGQPREPQVYTLPPCREEMTKNQVSLSCAVKGFYPSDIAVEWESNGQPENNYKTTPPVLDSDGSFFLVSKLTVDKSRWQQGNVFSCSVMHEALHNHYTQKSLSLSPG
- Kd [10]: 5.5 nM
- Kd [11]: 5.5 nM
- DU145 CTL (LDH) EC50 [13]: 0.0017 nM
- HCT116 CTL (Luc) EC50 [13]: 0.0072 nM
- Kd [14]: 5.47 nM and 5.53 nM
- koff [14]: 0.00332 s⁻¹ and 0.00343 s⁻¹
- kon [14]: 607000 M⁻¹ s⁻¹ and 620000 M⁻¹ s⁻¹
- t½ [14]: 3.27 min and 3.18 min
